The record followed here is PMC11077535.

As usually defined, the stoichiometry N is a count of units in the complex or per binding partner.

Test [1] has as its target androglobin heme-binding globin domain (circularly permuted globin domain of androglobin) (human). Nature of the test: SEC; size exclusion analysis in a phosphate buffer, without salt.
Test [2] has the same target. Nature of the test: SEC; size exclusion analysis in 150 mM NaCl buffer. Background: Size exclusion chromatography separates by hydrodynamic size, large species first.

With “androglobin heme-binding globin domain (circularly permuted globin domain of androglobin) (domain or fragment)”, the stoichiometry N amounted to 2 in test [1] and 4 in test [2].
